# Data from patent US20230094083A1 (YEDA RESEARCH AND DEVELOPMENT, published 2023).
# Changes are numbered by the printed parent chain. In names and notes the source's numbering stands.
# B1: optimized anti-Grp94 4C2 antibody (mouse IgG2a, Fc substitutions S239D and I332E, afucosylated) (antibody, part only; not given: mutant mouse IgG2a and light constant, V domains shown, not shown: another chain or arm of the molecule; a dimerising Fc or GST)
# VH: EVQLVETGGGLVQPKGSLKLSCAASGFTFNTNAMNWVRQAPGKGLEWVARIRSKSNNYATYYADSVKDRFTISRDDSQSMLFLQMNNLKTEDTAMYYCVRDTLAWFAYWGQGTLVTVSA
# VL: QIVLTQSPAIMSASPGEKVTITCSASSSVSYMHWFQQKPDTSPKLWIYSTSNLASGVPARFSASGSGTSYSLTISRMEAEDAATYYCQQKTSYPPTFGAGTKLELK
# modifications: The Fc substitutions S239D and I332E (paragraph 258 prints the second as 1332E; paragraph 22 has I332E) and the afucosylated Fc glycan lie in the constant region. The letters given do not carry them.
# B2: anti-Grp94 monoclonal antibody clone 4C2 (antibody, V domains shown)
# VH: B1 VH
# VL: B1 VL
# notes: Mouse hybridoma antibody; It was tested as hybridoma supernatant in the screens (ELISA, Meth A FACS, Biacore, binning); also called 4C2 clone hybridoma supernatant; monoclonal antibody 4C2
# B3: anti-Grp94 monoclonal antibody clone 5B2 (antibody, mouse IgG2a, V domains shown)
# VH: B1 VH with S79N, L81F, F82Y, L103A, A104T
# VL: B1 VL with I10L, T22A, D40G, A63G, A99S, L105I
# notes: Mouse hybridoma antibody, tested as hybridoma supernatant
# B4: anti-Grp94 monoclonal antibody clone 9A3 (antibody, mouse IgG2a, V domains shown)
# VH: EVKLVESGGGLVKPGGSLKLSCAASGFTFRTYAMSWVRQTPEKRLEWVATITTGGPTYYPDNVKGRFTISRDNDRNILDLQMNSLRSEDTATYYCLRGATTGDYWGQGTTLIVSS
# VL: DIVMTQSHKFMFTSVGDRVSITCKASHDVSTAVAWYQQKPGQYPKLLIYWASNRYTGVPDRFTGSGSGMDFTFTISSVQAEDLAVYYCQQHSSTPYTFGGGTRLEIK
# notes: as for B3
# How the values were obtained:
# [1] = molecular target: human Grp94 on the cell surface (senescent IMR-90 human lung fibroblasts; IPF patient lung fibroblasts) (human) (UniProt P14625); test: cell-based or functional assay
# human Grp94 on the cell surface (senescent IMR-90 human lung fibroblasts; IPF patient lung fibroblasts) (human), sequence (P14625 22-803): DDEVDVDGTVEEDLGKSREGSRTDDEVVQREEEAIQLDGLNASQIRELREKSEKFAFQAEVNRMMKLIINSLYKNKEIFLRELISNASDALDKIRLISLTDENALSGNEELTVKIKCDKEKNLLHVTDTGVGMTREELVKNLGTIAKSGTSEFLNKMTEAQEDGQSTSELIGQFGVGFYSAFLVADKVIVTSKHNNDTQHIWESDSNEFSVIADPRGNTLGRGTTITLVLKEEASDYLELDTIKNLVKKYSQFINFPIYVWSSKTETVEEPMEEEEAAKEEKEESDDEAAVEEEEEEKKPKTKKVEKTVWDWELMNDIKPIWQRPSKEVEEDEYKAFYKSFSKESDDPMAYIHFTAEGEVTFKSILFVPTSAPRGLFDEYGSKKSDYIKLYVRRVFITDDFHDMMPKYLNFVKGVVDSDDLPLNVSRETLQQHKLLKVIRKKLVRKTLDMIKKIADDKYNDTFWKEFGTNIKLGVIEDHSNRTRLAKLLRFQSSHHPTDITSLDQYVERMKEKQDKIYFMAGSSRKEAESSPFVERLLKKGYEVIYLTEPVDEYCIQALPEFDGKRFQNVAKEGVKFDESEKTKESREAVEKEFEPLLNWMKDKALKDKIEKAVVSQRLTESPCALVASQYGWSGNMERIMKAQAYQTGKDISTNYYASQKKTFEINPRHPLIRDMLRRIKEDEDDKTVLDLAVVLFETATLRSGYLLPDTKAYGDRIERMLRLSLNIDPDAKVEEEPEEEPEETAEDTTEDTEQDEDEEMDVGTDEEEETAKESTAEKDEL
# [2] = molecular target: T1, mouse Grp94 on the cell surface (Meth A sarcoma cells; senescent primary mouse lung fibroblasts) (mouse, UniProt P08113 22-802); test: ranking of clones by flow cytometry on Meth A sarcoma cells
# T1 construct: whole, on cells; also called Grp94 expressed on the surface of Meth A cells
# T1 sequence (P08113 22-802): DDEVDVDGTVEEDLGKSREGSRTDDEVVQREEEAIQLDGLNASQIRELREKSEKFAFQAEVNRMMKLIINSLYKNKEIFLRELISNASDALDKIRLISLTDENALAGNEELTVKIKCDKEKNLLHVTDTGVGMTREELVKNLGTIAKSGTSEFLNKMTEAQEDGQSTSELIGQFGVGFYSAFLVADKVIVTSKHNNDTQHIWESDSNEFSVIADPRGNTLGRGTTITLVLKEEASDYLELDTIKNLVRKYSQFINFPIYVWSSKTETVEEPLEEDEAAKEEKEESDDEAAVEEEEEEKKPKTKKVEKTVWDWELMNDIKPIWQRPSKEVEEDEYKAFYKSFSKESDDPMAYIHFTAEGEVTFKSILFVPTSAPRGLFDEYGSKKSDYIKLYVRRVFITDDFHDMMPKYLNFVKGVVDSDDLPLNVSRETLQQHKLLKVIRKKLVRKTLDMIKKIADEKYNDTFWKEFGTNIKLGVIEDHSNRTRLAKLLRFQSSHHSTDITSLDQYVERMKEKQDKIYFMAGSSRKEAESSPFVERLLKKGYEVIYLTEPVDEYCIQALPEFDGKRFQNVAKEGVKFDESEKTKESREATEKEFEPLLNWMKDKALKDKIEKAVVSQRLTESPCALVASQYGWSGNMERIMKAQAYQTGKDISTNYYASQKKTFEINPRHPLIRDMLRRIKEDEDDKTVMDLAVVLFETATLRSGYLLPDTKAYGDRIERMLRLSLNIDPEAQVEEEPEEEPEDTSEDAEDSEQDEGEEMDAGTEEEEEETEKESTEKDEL
# [3] = molecular target: T2, human Grp94 on the cell surface (senescent IMR-90 human lung fibroblasts; IPF patient lung fibroblasts) (human, UniProt P14625 22-803); test: flow cytometry, senescent against proliferating human IMR-90 cells
# T2 construct: whole, on cells; also called cell surface Grp94; Grp94 on the cell surface of senescent IMR-90 cells
# T2 sequence (P14625 22-803): as the sequence (P14625 22-803) above
# [4] = molecular target: T1, mouse Grp94 on the cell surface (Meth A …); test: flow cytometry, hybridoma supernatant diluted 1:2 on Meth A sarcoma cells
# Experimental: (§1) Mouse Meth A sarcoma cells (Cat. 400284 CLS, Germany) were cultured using standard tissue culture conditions in RPMI-1640. Cells were seeded at 1×10⁵ in 100 microliter FACS buffer in 96 well U bottom FACS plates, pelleted and resuspended in 100 microliters neat or 1 in 2 diluted supernatant sample for 30 minutes at 4° C. Cells were washed twice with PBS and resuspended in 100 microliter secondary antibody, AF647 conjugated goat anti-mouse IgG A21236 (Thermo Fisher Scientific) at 2 micrograms/ml in FACS buffer for 30 minutes at 4° C. Cells were washed twice with PBS and resuspended in 100 microliters water containing 10% CellFix (Becton Dickinson, UK). Median fluorescence intensity was measured using an Attune NxT Acoustic Focusing Cytometer (Thermo Fisher Scientific) with autosampler using acquisition parameters optimized with unstained cells and secondary labeled cells: FSC:100, SSC:340, FL1:370. The acquisition rate was 100 microliter/minute stopping at 10,000 R1 events. Positive controls consisted of commercially sourced mouse anti-Grp94 antibodies MA1-10892 (Thermo Fisher Scientific) and MAB7606 (R&D System) at 2 micrograms/ml while negative control consisted of Meth A cells incubated with secondary antibody alone.
# [5] = molecular target: T2, human Grp94 on the cell surface …; test: immunofluorescence on senescent human IMR-90 cells
# [6] = molecular target: T3, recombinant human Grp94 (Creative Biomart, USA) (human, UniProt P14625 22-803, limits assumed); test: Biacore single cycle kinetics, antibody captured, Grp94 as analyte
# T3 construct: Bought recombinant protein; It served as immunogen, ELISA coat, Biacore analyte and the immobilised ligand in binning; also called rHGrp94; rhGrp94
# T3 sequence (P14625 22-803 limits assumed): as the sequence (P14625 22-803) above
# Experimental: Biacore single cycle analysis was performed on supernatants where the monoclonal antibody was captured with Fc on the surface as the ligand and Grp94 flowed over as the analyte. Kinetic experiments were performed on a Biacore T200 running Biacore T200 Control software V2.0.1 and Evaluation software V3.0 (GE Healthcare, Sweden). All single cycle kinetic experiments were run at 25° C. with HBS-P+ running buffer (pH 7.4) (GE Healthcare, UK) containing 1 mg/ml BSA.
# Antibodies were diluted in running buffer and at the start of each cycle were loaded onto Fc2, Fc3, and Fc4 of the CM5 chip coupled with an anti-mouse capture antibody using standard amine chemistry (GE Healthcare, UK). IgGs were captured at a flow rate of 10 microliter/minute to give an immobilization level (RL) of approximately 160RU. The surface was then allowed to stabilize. Single cycle kinetic data was obtained with Grp94 (Creative BioMart, USA) as the analyte at a flow rate of 30 microliter/min to minimize any potential mass transport limitations. […] The association phase for the three injections of increasing concentrations of Grp94 was monitored for 150 seconds each time and a single dissociation phase was measured for 900 seconds following the last injection of Grp94. […]
# [7] = molecular target: T1, mouse Grp94 on the cell surface (Meth A …); test: flow cytometry, neat hybridoma supernatant on Meth A sarcoma cells
# Experimental: as §1
# [8] = molecular target: T2, human Grp94 on the cell surface …; test: flow cytometry on senescent human IMR-90 cells
# [9] = molecular target: T1, mouse Grp94 on the cell surface (Meth A …); test: flow cytometry, senescent against proliferating primary mouse lung fibroblasts
# [10] = molecular target: T1, mouse Grp94 on the cell surface (Meth A …); test: flow cytometry on senescent primary mouse lung fibroblasts
Binder,"ADCC reporter-gene assay (Promega, mouse FcgRIV effector cells), activation of the reporter; target cells senescent IMR-90 [1] [fold]","mFcγRIV ADCC Reporter Bioassay (Promega), activation of the reporter gene; target cells senescent IMR-90 [1] [fold]","Top 24 by Meth A (rank score, 1 = best binder) [2] [rank]",Human FACS ratio (senescent cells / proliferating cells) [3] [ratio],Meth A Dilution 1:2 (mean fluorescence intensity) [4],"Human IF (score 1-9, 1 = best) [5] [score]",Kd [6] [nM],Meth A Binding (mean fluorescence intensity) [7],"Human FACS plot (score 1-9, 1 = best) [8] [score]",Mouse FACS ratio (senescent cells / proliferating cells) [9] [ratio],"Mouse FACS (score 1-9, 1 = best) [10] [score]"
B1,20,20,–,–,–,–,–,–,–,–,–
B2,–,–,1,1,1990 RFU (mean fluorescence intensity),1,3.47,2690 RFU (mean fluorescence intensity),4,5,–
B3,–,–,12,3,746 RFU (mean fluorescence intensity),3,2.5,819 RFU (mean fluorescence intensity),3,6,–
B4,–,–,18,6,688 RFU (mean fluorescence intensity),4,–,732 RFU (mean fluorescence intensity),1,7,4
